According to patent US20160002357A1 (Pfizer, published 2016):
Where a chain is given by its changes, count along the chain named. Values joined by “and” are separate entries in the source; they are usually repeats but may differ in a detail not shown here. Equal entries are not always repeated.

B1: LP-DART #2 (bispecific antibody)
chain 1: QAVVTQEPSLTVSPGGTVTLTCRSSTGAVTTSNYANWVQQKPGQAPRGLIGGTNKRAPWTPARFSGSLLGGKAALTITGAQAEDEADYYCALWYSNLWVFGGGTKLTVLGGGGSGGGGEVQLVQSGAEVKKPGASVKVSCKASGYTFTSYGISWVRQAPGQGLEWMGWISAYNGNTNYAQKLQGRVTMTTDTSTSTAYMELRSLRSDDTAVYYCATIDTASAFDIWGQGTMVTVSSGGTGGCPPCPAPEAAGAPSVFLFPPKPKDTLMISRTPEVTCVVVDVSHEDPEVKFNWYVDGVEVHNAKTKPREEQYNSTYRVVSVLTVLHQDWLNGKEYKCKVSNKALPAPIEKTISKAKGQPREPQVCTLPPSREEMTKNQVSLWCLVKGFYPSDIAVEWESNGQPENNYKTTPPVLDSDGSFFLYSKLTVDKSRWQQGNVFSCSVMHEALHNHYTQKSLSLSPG
chain 2: QSVLTQPPSVSAAPGQKVTISCSGSSSNIGNNYVSWYQQLPGTAPKLLIYDNNKRPSGIPDRFSGSKSGTSATLGITGLQTGDEADYYCGTWDSSLSAVVFGGGTKLTVLGGGSGGGGEVQLVESGGGLVQPGGSLRLSCAASGFTFNTYAMNWVRQAPGKGLEWVARIRSKYNNYATYYADSVKDRFTISRDDSKNSLYLQMNSLKTEDTAVYYCVRHGNFGNSYVSWFAYWGQGTLVTVSSGGTGGCPPCPAPEAAGAPSVFLFPPKPKDTLMISRTPEVTCVVVDVSHEDPEVKFNWYVDGVEVHNAKTKPREEQYNSTYRVVSVLTVLHQDWLNGKEYKCKVSNKALPAPIEKTISKAKGQPREPQVYTLPPCREEMTKNQVSLSCAVKGFYPSDIAVEWESNGQPENNYKTTPPVLDSDGSFFLVSKLTVDKSRWQQGNVFSCSVMHEALHNHYTQKSLSLSPG
notes: also called P-cadherin LP-DART construct #2 (P-CAD 35, CD3-2)
B2: LP-DART #8 (bispecific antibody)
chain 1: QAVVTQEPSLTVSPGGTVTLTCRSSTGAVTTSNYANWVQQKPGQAPRGLIGGTNKRAPWTPARFSGSLLGGKAALTITGAQAEDEADYYCALWYSNLWVFGGGTKLTVLGGGGSGGGGEVQLVQSGAEVKKPGASVKVSCKASGYTFTSYGISWVRQAPGQGLEWMGWISAYNGNTNYAQKLQGRVTMTTDTSTSTAYMELRSLRSDDTAVYYCATIDTASAFDIWGQGTMVTVSSGGTGGGEPKSSDKTHTCPPCPAPEAAGAPSVFLFPPKPKDTLMISRTPEVTCVVVDVSHEDPEVKFNWYVDGVEVHNAKTKPREEQYNSTYRVVSVLTVLHQDWLNGKEYKCKVSNKALPAPIEKTISKAKGQPREPQVYTLPPCREEMTKNQVSLSCAVKGFYPSDIAVEWESNGQPENNYKTTPPVLDSDGSFFLVSKLTVDKSRWQQGNVFSCSVMHEALHNHYTQKSLSLSPG
chain 2: QSVLTQPPSVSAAPGQKVTISCSGSSSNIGNNYVSWYQQLPGTAPKLLIYDNNKRPSGIPDRFSGSKSGTSATLGITGLQTGDEADYYCGTWDSSLSAVVFGGGTKLTVLGGGSGGGGEVQLVESGGGLVQPGGSLRLSCAASGFTFNTYAMNWVRQAPGKGLEWVARIRSKYNNYATYYADSVKDRFTISRDDSKNSLYLQMNSLKTEDTAVYYCVRHGNFGNSYVSWFAYWGQGTLVTVSSGGTGGGEPKSSDKTHTCPPCPAPEAAGAPSVFLFPPKPKDTLMISRTPEVTCVVVDVSHEDPEVKFNWYVDGVEVHNAKTKPREEQYNSTYRVVSVLTVLHQDWLNGKEYKCKVSNKALPAPIEKTISKAKGQPREPQVCTLPPSREEMTKNQVSLWCLVKGFYPSDIAVEWESNGQPENNYKTTPPVLDSDGSFFLYSKLTVDKSRWQQGNVFSCSVMHEALHNHYTQKSLSLSPG
notes: also called P-cadherin LP-DART construct #8 (P-CAD 35, CD3-2)
B3: LP-DART #3 (bispecific antibody)
chain 1: QAVVTQEPSLTVSPGGTVTLTCRSSTGAVTTSNYANWVQQKPGQAPRGLIGGTNKRAPWTPARFSGSLLGGKAALTITGAQAEDEADYYCALWYSNLWVFGGGTKLTVLGGGGSGGGGEVQLVQSGAEVKKPGASVKVSCKASGYTFTSYGISWVRQAPGQGLEWMGWISAYNGNTNYAQKLQGRVTMTTDTSTSTAYMELRSLRSDDTAVYYCATIDTASAFDIWGQGTMVTVSSGEPKSSDKTHTCPPCPAPEAAGAPSVFLFPPKPKDTLMISRTPEVTCVVVDVSHEDPEVKFNWYVDGVEVHNAKTKPREEQYNSTYRVVSVLTVLHQDWLNGKEYKCKVSNKALPAPIEKTISKAKGQPREPQVCTLPPSREEMTKNQVSLWCLVKGFYPSDIAVEWESNGQPENNYKTTPPVLDSDGSFFLYSKLTVDKSRWQQGNVFSCSVMHEALHNHYTQKSLSLSPG
chain 2: QSVLTQPPSVSAAPGQKVTISCSGSSSNIGNNYVSWYQQLPGTAPKLLIYDNNKRPSGIPDRFSGSKSGTSATLGITGLQTGDEADYYCGTWDSSLSAVVFGGGTKLTVLGGGSGGGGEVQLVESGGGLVQPGGSLRLSCAASGFTFNTYAMNWVRQAPGKGLEWVARIRSKYNNYATYYADSVKDRFTISRDDSKNSLYLQMNSLKTEDTAVYYCVRHGNFGNSYVSWFAYWGQGTLVTVSSGEPKSSDKTHTCPPCPAPEAAGAPSVFLFPPKPKDTLMISRTPEVTCVVVDVSHEDPEVKFNWYVDGVEVHNAKTKPREEQYNSTYRVVSVLTVLHQDWLNGKEYKCKVSNKALPAPIEKTISKAKGQPREPQVYTLPPCREEMTKNQVSLSCAVKGFYPSDIAVEWESNGQPENNYKTTPPVLDSDGSFFLVSKLTVDKSRWQQGNVFSCSVMHEALHNHYTQKSLSLSPG
notes: also called P-cadherin LP-DART construct #3 (P-CAD 35, CD3-2)
B4: 153 MP3 C-terminal DART (bispecific antibody)
chain 1: DKTHTCPPCPAPEAAGAPSVFLFPPKPKDTLMISRTPEVTCVVVDVSHEDPEVKFNWYVDGVEVHNAKTKPREEQYNSTYRVVSVLTVLHQDWLNGKEYKCKVSNKALPAPIEKTISKAKGQPREPQVYTLPPSREEMTKNQVSLWCLVKGFYPSDIAVEWESNGQPENNYKTTPPVLDSDGSFFLYSKLTVDKSRWQQGNVFSCSVMHEALHNHYTQKSLSLSPGKAPSSSPMEQSVLTQPPSVSAAPGQKVTISCSGSSSNIGNNYVSWYQQLPGTAPKLLIYDNNKRPSGIPDRFSGSKSGTSATLGITGLQTGDEADYYCGTWDSSLSGVVFGGGTKLTVLGGGGSGGGGEVQLVESGGGLVQPGGSLRLSCAASGFTFSTYAMNWVRQAPGKGLEWVGRIRSKYNNYATYYADSVKGRFTISRDDSKNSLYLQMNSLKTEDTAVYYCVRHGNFGNSYVSWFAYWGQGTLVTVSSGVEPKSC
chain 2: QAVVTQEPSLTVSPGGTVTLTCRSSTGAVTTSNYANWVQQKPGQAPRGLIGGTNKRAPWTPARFSGSLLGGKAALTITGAQAEDEADYYCALWYSNLWVFGGGTKLTVLGGGGSGGGGEVQLVQSGAEVKKPGASVKVSCKASGYTFTSYGISWVRQAPGQGLEWMGWISAYNGNTNYAQKLQGRVTMTTDTSTSTAYMELRSLRSDDTAVYYCATIDTANAFGIWGQGTMVTVSSGFNRGEC
chain 3: DKTHTCPPCPAPEAAGAPSVFLFPPKPKDTLMISRTPEVTCVVVDVSHEDPEVKFNWYVDGVEVHNAKTKPREEQYNSTYRVVSVLTVLHQDWLNGKEYKCKVSNKALPAPIEKTISKAKGQPREPQVYTLPPSREEMTKNQVSLSCAVKGFYPSDIAVEWESNGQPENNYKTTPPVLDSDGSFFLVSKLTVDKSRWQQGNVFSCSVMHEALHNRYTQKSLSLSPGK
notes: also called C-terminal MP3-DART P-CAD153 VH and VL
B5: 35 LP-DART (bispecific antibody)
chain 1: QSVLTQPPSVSAAPGQKVTISCSGSSSNIGNNYVSWYQQLPGTAPKLLIYDNNKRPSGIPDRFSGSKSGTSATLGITGLQTGDEADYYCGTWDSSLSAVVFGGGTKLTVLGGGSGGGGEVQLVESGGGLVQPGGSLRLSCAASGFTFSTYAMNWVRQAPGKGLEWVGRIRSKYNNYATYYADSVKGRFTISRDDSKNSLYLQMNSLKTEDTAVYYCVRHGNFGNSYVSWFAYWGQGTLVTVSSGCPPCPAPEAAGAPSVFLFPPKPKDTLMISRTPEVTCVVVDVSHEDPEVKFNWYVDGVEVHNAKTKPREEQYNSTYRVVSVLTVLHQDWLNGKEYKCKVSNKALPAPIEKTISKAKGQPREPQVCTLPPSREEMTKNQVSLWCLVKGFYPSDIAVEWESNGQPENNYKTTPPVLDSDGSFFLYSKLTVDKSRWQQGNVFSCSVMHEALHNHYTQKSLSLSPG
chain 2: QAVVTQEPSLTVSPGGTVTLTCRSSTGAVTTSNYANWVQQKPGQAPRGLIGGTNKRAPWTPARFSGSLLGGKAALTITGAQAEDEADYYCALWYSNLWVFGGGTKLTVLGGGGSGGGGEVQLVQSGAEVKKPGASVKVSCKASGYTFTSYGISWVRQAPGQGLEWMGWISAYNGNTNYAQKLQGRVTMTTDTSTSTAYMELRSLRSDDTAVYYCATIDTASAFDIWGQGTMVTVSSGCPPCPAPEAAGAPSVFLFPPKPKDTLMISRTPEVTCVVVDVSHEDPEVKFNWYVDGVEVHNAKTKPREEQYNSTYRVVSVLTVLHQDWLNGKEYKCKVSNKALPAPIEKTISKAKGQPREPQVYTLPPCREEMTKNQVSLSCAVKGFYPSDIAVEWESNGQPENNYKTTPPVLDSDGSFFLVSKLTVDKSRWQQGNVFSCSVMHEALHNHYTQKSLSLSPG
B6: LP-DART #1 (bispecific antibody)
chain 1: B5 chain 2 with Y361C, C366S, S378W, A380L, V419Y
chain 2: B5 chain 1 with S148N, G167A, G186D, C368Y, S373C, W385S, L387A, Y426V
notes: also called P-cadherin LP-DART construct #1 (P-CAD 35, CD3-2)

Assays:
[1] = target: T1, cynomolgus monkey P-cadherin ECD (cynomolgus monkey); assay: SPR
T1 construct: extracellular domain; also called cyno P-cadherin ECD; Cyno P-cadherin

[2] = target: T2, human P-cadherin expressed on the cell surface (human, UniProt P22223 108-829); assay: cell-based or functional assay
[3] = target: T1, cynomolgus monkey P-cadherin ECD; assay: SPR Biacore pH 7.4
[4] = target: T1, cynomolgus monkey P-cadherin ECD; assay: SPR Biacore pH 7.4, average
[5] = target: T2, human P-cadherin expressed on the cell …; assay: cell-based or functional assay; remark: listed apart in the source

T2 sequence (P22223 108-829): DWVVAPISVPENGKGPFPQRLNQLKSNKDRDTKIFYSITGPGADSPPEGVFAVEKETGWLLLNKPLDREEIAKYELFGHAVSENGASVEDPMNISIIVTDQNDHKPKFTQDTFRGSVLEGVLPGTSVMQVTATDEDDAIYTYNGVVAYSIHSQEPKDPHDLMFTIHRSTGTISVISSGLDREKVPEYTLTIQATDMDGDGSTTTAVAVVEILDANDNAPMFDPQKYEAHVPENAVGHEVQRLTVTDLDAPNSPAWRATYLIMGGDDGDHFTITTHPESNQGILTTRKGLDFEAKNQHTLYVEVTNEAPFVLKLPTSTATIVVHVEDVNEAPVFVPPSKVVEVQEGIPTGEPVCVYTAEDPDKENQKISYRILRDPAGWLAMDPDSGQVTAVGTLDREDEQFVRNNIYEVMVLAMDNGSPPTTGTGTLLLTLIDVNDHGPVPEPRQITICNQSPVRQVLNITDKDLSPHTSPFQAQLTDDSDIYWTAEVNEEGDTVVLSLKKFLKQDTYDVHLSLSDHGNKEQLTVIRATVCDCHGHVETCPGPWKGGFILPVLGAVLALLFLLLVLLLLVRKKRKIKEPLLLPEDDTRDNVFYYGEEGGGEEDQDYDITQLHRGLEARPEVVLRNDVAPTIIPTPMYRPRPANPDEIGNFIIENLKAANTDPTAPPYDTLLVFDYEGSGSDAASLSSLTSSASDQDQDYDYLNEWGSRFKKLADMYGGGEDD

Binder	Kd [1] [nM]	T cell Cytotoxicity [2] [nM]	further results
B1	73.5	0.92	–
B2	104	2.27	–
B3	85.7	1.6	–
B4	–	–	Kd [3]: 1.56 nM and 2.11 nM; koff [3]: 0.000106 s⁻¹ and 0.000179 s⁻¹; kon [3]: 68000 M⁻¹ s⁻¹ and 84600 M⁻¹ s⁻¹; t½ [3]: 1.71 h and 1.01 h; Kd [4]: 1.84 nM
B5	–	–	DU145 CTL (LDH) EC50 [5]: 0.0073 nM; HCT116 CTL (Luc) EC50 [5]: 0.107 nM
B6	108	0.79	–
